Measured values as given in patent publication EP2330125A2.

T1: CGRP receptor (Homo sapiens (Human)), Q16602
T1 chain 1: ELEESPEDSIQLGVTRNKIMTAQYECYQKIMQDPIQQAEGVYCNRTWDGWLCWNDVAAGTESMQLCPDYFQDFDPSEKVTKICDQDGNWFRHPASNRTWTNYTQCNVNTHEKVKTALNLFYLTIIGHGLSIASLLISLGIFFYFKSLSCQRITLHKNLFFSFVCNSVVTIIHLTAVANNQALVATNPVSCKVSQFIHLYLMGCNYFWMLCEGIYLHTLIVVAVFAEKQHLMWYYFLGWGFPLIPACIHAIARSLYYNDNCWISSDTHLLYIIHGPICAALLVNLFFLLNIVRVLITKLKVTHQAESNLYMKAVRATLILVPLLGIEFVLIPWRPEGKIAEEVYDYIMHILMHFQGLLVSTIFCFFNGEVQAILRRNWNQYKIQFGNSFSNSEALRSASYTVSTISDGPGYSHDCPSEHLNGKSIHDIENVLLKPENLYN
T1 chain 2: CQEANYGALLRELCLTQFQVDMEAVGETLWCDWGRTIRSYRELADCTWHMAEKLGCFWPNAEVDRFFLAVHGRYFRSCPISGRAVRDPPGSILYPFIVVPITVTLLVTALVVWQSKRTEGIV

B1: [#Suc-(bAla)-PYY-(3-36), amide] [#NH-Des-Lys1-Rat Amylin, amide] (peptide)
chain 1: not shown
chain 2: CNTATCATQRLANFLVRSSNNLGPVLPPTNVGSNTY
modifications: not checked

Key:
[1] = target: GLP-1/GIP/CT (receptors of the 'GLP-1/GIP/CT cyclase' assay); test: cell-based or functional assay
[2] = target: calcitonin receptor; test: cell-based or functional assay
Chain of calcitonin receptor (P30988 whole entry): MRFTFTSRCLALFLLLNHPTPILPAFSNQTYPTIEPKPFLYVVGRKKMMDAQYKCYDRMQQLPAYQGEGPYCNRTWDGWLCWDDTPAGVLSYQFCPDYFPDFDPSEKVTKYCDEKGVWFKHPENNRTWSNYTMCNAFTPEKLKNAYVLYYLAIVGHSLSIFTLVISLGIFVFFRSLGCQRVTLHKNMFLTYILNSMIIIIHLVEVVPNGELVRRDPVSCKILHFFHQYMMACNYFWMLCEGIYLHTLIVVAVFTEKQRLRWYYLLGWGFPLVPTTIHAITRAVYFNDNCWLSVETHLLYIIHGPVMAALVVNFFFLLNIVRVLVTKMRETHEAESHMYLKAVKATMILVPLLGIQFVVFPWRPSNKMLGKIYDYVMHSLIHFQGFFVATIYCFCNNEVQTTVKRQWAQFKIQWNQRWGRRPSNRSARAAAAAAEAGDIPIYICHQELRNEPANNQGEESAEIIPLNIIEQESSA

[3] = target: calcitonin receptor; test: calcitonin receptor binding assay
[4] = target: amylin receptor (rat); test: 125I-amylin displacement, rat nucleus accumbens membranes
[5] = target: calcitonin receptor; test: CT receptor binding assay
[6] = target: T1, CGRP receptor (Homo sapiens (Human)), …; test: CGRP receptor binding assay
[7] = target: amylin receptor (rat); test: amylin receptor binding assay

| Binder | GLP-1/GIP/CT cyclase [1] | CT cyclase [2] | Receptor Binding [3] | Receptor Binding [4] | IC50 [5] | IC50 [6] | IC50 [7] |
| --- | --- | --- | --- | --- | --- | --- | --- |
| KCNTATCATQRLANFLVRSSNNLGPVLPPTNVGSNTY (modifications not checked) [Rat amylin] | 5 | 326 | 3 | 0.05 | – | – | – |
| DFMGWMDFGKRKCNTATCATQRLANELVRLQTYPRTNVGSNTY (modifications not checked) [CCK/Amylin-sCT hybrid DF(P-CH2SO3)… …] | – | – | – | – | 0.044 nM | 4.4 nM | 0.083 nM |
| DFMGWMDFGKRKCNTATCATQRLANELVRLQTYPRTNVGSNTY (modifications not checked) [27(p-CH2SO3)-PheCCK8(26-33),G,K,R,15Glu,hAmy(1-17),18Arg,sCT(18-26),hAmy(32-37)] | – | – | 0.04 | – | – | – | – |
| B1 | – | 645 | 46 | – | – | – | – |
